Test results reported in the nanobody polyreactivity screen of Harvey et al. (2022).

Experiment: yeast display, Sf9 membrane polyspecificity reagent, FACS + sequencing; frameworks hold sequencing errors
Summary of the method: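 After 36–48 hours of galactose induction, yeast (Saccharomyces cerevisiae BJ5465) displaying a synthetic nanobody library were stained at 4 °C for 1 hour with 10% biotinylated, detergent-solubilized Sf9 membrane reagent. Streptavidin microbeads enriched the stained cells before FACS sorting into low and high (top ~1%) gates on anti-HA and streptavidin fluorescence. Each clone's polyreactivity label reflects its gate of origin.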

| Sequence | polyreactivity (PSR sort gate) |
| --- | --- |
| QVQLVESGGGLVQAGGSLRLSCAASGITLGRYAMGWYRQAPGKERELVAAISWSGGTTYYADSVKGRFTISRDTAKNTVDLQMNSLKPEDTAGYYCTKESPYRQWGWSYYYWGQGTQVTVSS | high polyreactivity |
| QVHLQESGGGLVQACGSQRLSCAARGSISEGQDMGWYRRAPGKEREFVAGIAPGATTYYADSVRGRFTISRDNANNTVSLQMNSLKPEDTAVYYCAARTVTETDHDYWGQGTQVTVSS | low polyreactivity |
| QVQLVESGGGLVQAGGSLRLSCAASGRTFAYYAMGWYRQAPGKERELVSTITWSDGSTYADSVKGRFTISRDNAKNTVYLQMNSLKPEDTAVYYCAAQGWSWYWYYFYLFDYWGQGTQVTVSS | high polyreactivity |
| QEQQQESGGGLVQAGGSQRLSCAASGYIFYFQYMGWYRQAPGKEREFVAAISDGANTNYADSVKGRFTISRDNAINTEYLQMNSLKPEDTAVYYCAVYADENYYYIYWGQGTQVTVSS | low polyreactivity |
| QVQLVESGGRIDQAGGRLRLSCAASGSIFDWYAMGWYRQAPGKERELVAAIDSSGSSTYYADSVKGRFTISRDNAKNTVYLQMNSLIPEDTAVYYCAADSDWIRYWFGSLYGSDYWGQGTQVSVSS | low polyreactivity |
| QVQLVESGGGLVQAGGSLRLSCAASGSIFIWYTMGWYRQAPGKERELVAAIDWNSGSTYYADSVKGRFTISRDNAKNTVYLQMNSLKPEDTAVYYCAATTFSGWFIFYYWGQGTQVTVSS | low polyreactivity |
| QVQLLETGGGLVQAGGSLRLSCAPSGRIFRQYVMGWSRQAPGKERELVAAISRSGGTTYYADSVKGRFTISRDNAKNTVYLQMNILKPEDTAVYYCAASFRGQIVGYWGQGTQVTLSS | high polyreactivity |
| QVQLVESGGGLVQAGGSLRISCAASGRSFGVNAMGWYRQAPGKERELVAVISSGGSTYYADSVKVRFTISRDNAKNTVYLQMNSLKPEDTAVYYCNAVFGRWFPYNLSDYWGQGTQVTVSS | low polyreactivity |
| QVQLVESGGGLVQAGGSLRLSCAASGSIFNYYAMGWNRQAPVKETEFVADISGSGSSTYYADSVKGRFTISRDNAKNTVYLQMNSLKPEDTAVYYCIAEYYWGVGYYPYSDYGYWGQGTQVTVSS | low polyreactivity |
| QVQLLESGGGLVQAGGSLRLSCAASGSTFNVYAMGWYRQAPGKERELVAAINWSGGNTYYADSVKGRFTISRDNAKNTVYLQMNSLNPEDTAVDYCNADGFVGTPSVDYDYWGQGTQVTVSS | low polyreactivity |
| QVQLVESGGGLVQAGGSLRLSCAASGIIFINYVMGWYRQAPGKERELVAAISIGGGRTYYADSVKGRFTISRDNAKNTVYLQMNSLKPEDTAVYYCAAEYFYGYKDVYDYWGQGTQVTVSS | high polyreactivity |
| QVQLVESGGRLVQAGGSLRLSCAASGSTVGYNALGWYRQAPGKASELVAAITSRGSTNYADSVKGRFTISRDNAKNTVYLQMNSLKPEVTAVYYCAKATSSSEYGYDYWGQGTQVTVSS | high polyreactivity |
| QVQLVESGGGLVQAGGSLRLSCAASGSIFYRYAMGWYRQGPGKERELVAGITRGGSTNYADSVKGRFTISRDNAMNTVYLQMNSLKPEDTAVYYCAARSYVYVHYYYWGQGTQVTVSS | high polyreactivity |
| QVQLVESGGGLVQAGGSLRLSCAASGFTFPYNAMGWYRPAPGTARELVAGISYGGGRTYYADSVKGRFTFSRDNAKNTVYLQMNSLKPEDTAVYYCARRPGAWKYVYTGDYWGQGTQVTVSS | high polyreactivity |
| QVQLVESGGGLVQAGGSLRLSCAASGSIFPGNAIGSYRQAPGKERELDARITVSGGTTYFADSVKGRFTISRDNAKNTVYLQMNSLKPEDTAVYYCAADGPSPFIQGYAKGDYWGQGTQVTVSW | low polyreactivity |
| QVQLVESGGGLVQAGGSLRLSCAASGFISVRNAMGWYRQAPGKERELVAAISSGDTTDYADSVKGRFTISRDNAKNTVSLQMNSLKAEDTAVYYCAAVYYGRYYYWGQGTQVTVSS | low polyreactivity |
| QVQLVESGGGLVQAGGSLRLSCAASGFTFSSNVMGWYRQAPGKERELVAAISTSGDGSTYYADSVKGRFTISRDNAKNTVYLQMNSLIPEDTAVYYCAAEYPDEDGVYEYDSWGQGTQVTVSS | low polyreactivity |
| QVQLVESGGGLVQAGGSLRLSCAASGGTFARYAMGWYRQAPGKERELVAAITRSGGTTYYADSVKGRFTISRDNAKNTVYLQMNSLKPEDTAVYYCAALPIVDYYGYGYWGQGTQVTVSS | high polyreactivity |
| QVQLVESGRGLVQAGGSLRISCAASGSTFGYYAMGWYRQAPGKERELVAAITSTGRTKYADSVKGRFTISRDNAKNTVYLQMNSLKPEDTAVYYCAADIWGQGTQVTVSS | high polyreactivity |
| QVQLVESGGGLVQAGGSLRLSCAASGRTFGYNGMGWYRQAPGKERELVAAINSGGNTNYADSVKGRFTISRDNAKNTVYLQMNSLKPEDTSVYYCAKYGTLFEPVPNEYDYWGQGTQVTVSS | low polyreactivity |
| QVQLVESGGGLVQAGGSLRLSCAASGRIFAGYAMGWYRQAPGTERELVATITRGGSTNYADSVKRPFTISRDNAKNTVYLQMNSLKPEDTAVYYCNADIRRHGGYAHEYWGQGTKVTVSS | low polyreactivity |
| QVQLVESGGGLVQAGGSLRLSCAASGFTFDSYDMGWYRQAPGKERELVAAITWSGGSTYYADSVKGRFTISRDNAKNTVYLQMYSLKPEDTAVYYCKADTGTYWVPWYHDGYDYWGEGTQVTVSS | low polyreactivity |

| Sequence | polyreactivity (PSR sort gate) |
| --- | --- |
| QVQLVESGGGLVQAGGSLRLSCAASGITFTSYVMGWYRQAPGKERELVAAIRWSGGRTYYADSVKGRFTISRDNAKNTVYLQMNSLKPEDTAVYYCNRVTRSHVDYWGQGTQLTVSS | high polyreactivity |
| QVQLVESGGGLVQAGGSLRLSCAASGRIFWRNAMGWNRQAPGKERELVAAISSGGSTYYADSVKGRFTISRDNAKNTVYLQMNSLKPEDTAVYYCAARSSWRGGSYDHFERDYWGQGTQVTVSS | high polyreactivity |
| QVQLVESGGGLVQSVGSLRLSCAASGFTFRWYAMGWYRQAPGKERELVAAITSRGGTTYYADSVKGRFTISRDNAKNTVYLQMNSLNPEDTAVYYCAARRAGRRGYYYWGQGTQVTVSS | high polyreactivity |
| QVQLVESGGGLVQAGGSLRLSCAASGYTFVVYAMGWYRPAPGKERELVAAINKSGGSTYYADSVKGRFTISRDNAKNTVYLQMNSLKPEDTAVYYCAAVVWILYSSSRGDYWGQGTQVTVSS | low polyreactivity |
| QVQLVESGGGLVQAGGSLRLSCAASGRIFPAYAMGWYRQAPWKERELVASIRRGGITYADSVKGRFTISRDNAKNTVYLQMNSLKPEDSAVYYCNADYRGWGYHMYYWGQGTQVTVSS | low polyreactivity |
| QVQLVESGGGLVQAGGSLRISCAASGRTFGYYGMGWSRQAPGKERELVAGITSRGGSTYYADSVKGRFTISRDNAKNTVYLQMNSLKPEDTAVYYCNAQYARKYGFWTAYDYWGQGTQVTVSS | high polyreactivity |
| QVQLVESGGGLVQAGGSLRLSCAASGSTFYRYAMGWYRQAPGKEREFVAAISRSGGSTYYADSVKGRFTISRDNAKNTVYLQMNSLKPEDTAVYYCNKYYWYPYGRAHYYGYWGQGTQVTVSS | high polyreactivity |
| QVQLVESGGGLVQAGGSLRLSCAASGFIFWQNAMGWSRQAPGKEREWVADISWSGGGSTYYADSVKGRFTISRDNAKNTVYLQMNSLKPADTALYYCAASQVYSYYGTYYSAYDYWGQGTQVTVSS | low polyreactivity |
| QVQLVESGGGLVQAGGSLRLSCAASGSIFTNYAMGWDRQAPGKERELVAAIRSSGGSTYYADSVKGRFTISRDNAKNTVYFQLNSLKPEDTAVYYCAARKSYKYPVNSAVGYWGQGTQVTVSS | high polyreactivity |
| QVQRVESGGGLVQAGGSLRLSCAASGSIFGVYTRGWYRQAPGKESELVAAITSAGSTYADSVKGRFTISRDNAKNTVYLQMNSLKPEDTAVYYCAAGFHKRVTPEILYDYWGQGTQVTVSS | low polyreactivity |
| QVQLVESGGGLVQAGGSLRLSCAASGFTFYKYTMGWYRQAPGKERELVAAISARGGSTYYADSVKGRFTISRDNAKNTVYLQMNSLKPEDTAVYYCAADYWRTYVLGYDYWGQGTQVTVSS | high polyreactivity |
| QVQLVESGGGLVQAGGSLRLSCAASGFIFYSNAMGWYRQAPGKERELVAAISRGGGSTYYADSVKGRITISRDNAKNTVYLQMNSLIPVDTAVYYCAKRRLSPQDDYWGQGTQVTVSS | high polyreactivity |
| QVQLVESGGGLVQAGGSLRLSCAASGFTFRDYAMGWYRQAPGQERELVATITWRVGSTFYADSVKGRFTISRDNAKNTVYLQMNTLKPEDTADDYCAARWSTSYGPFDYWGQGTQVTVSS | low polyreactivity |
| QVQLVESGGGLVQAGGSLRLSCAASGSIFSVYARGSYRQAPGKERELVAGITRGGSTYADSVKGRFTISRDNAKNPVYLQMNSLKPEDTAVYYCNAQTRIVKDRLRSDYWGQGTQVTVSS | high polyreactivity |
| QVQLVESGGGLVQAGGSLRLSCAASGRTFYEYAMGWYRQAPGKERELVAAITRSGGSTYYADSVKGRFTISRDNAKNTVYLQMNSLKPEDTAVYYCAADGIKGGVEYDYWGQGTQVTVSS | high polyreactivity |
| QVQLVESGGGLVQAGGSLRLSCADSGSTFYGNVMGWYRQAPGKERELVAAITRGGTTNYADSVKGRFTISRDNAKNTVYLQMNSLKPEDTAVYYCAKASYWVQASNDYWGQGTQVTVSS | low polyreactivity |
| QVQIVESGGGLVQAGGSLRLSCAASGRIFRNTMGWYIQAPGKERDLVAAITDTTDSTYYADSVKGRFTISRDNAKNTVYLQMNSLKPEDSAVYYCAARYGGYVNRPYYYWGHGTQVTVSS | low polyreactivity |
| QVQLVESGGGLVQAGGSLRLSCAAYGSTFYNNVMGWYRPAPGKERELVAAINSGGRTYYADSVKGRFTISRDNAKNTVYLQMNSLKPEDTAVYYCAVGYGRAGRMDYWGQGTQVTVSS | high polyreactivity |
| QVQLVESGGGLVQAGGSLRLSCAASGFIFRYYAMGWYRQAPGKERELVAGISSSGASTYYADSVKGRFTISRDNAKYTVYLLMNSLKPEDTAVYYCAARRQRDRYGYWGQGTQVTVSS | high polyreactivity |
| QVQLVESGGGLVQAGGSLRLSCAASGFILYYYAMGWYRQAPGKERELVASISRRGGSTYYADSVKGRFTISRDNAKHTVYLQMNSLKPEDTAVYYCNAYSTYIKYDYWGHGTQVTVSS | high polyreactivity |
| QVQLVESGGGLVQAGGSLRLSCAASGSIFVNNAMGWYRQAPGKERELVAAIRRGSSTNYADSVKGRFTISRDNAKNTVYLQMNSLKPEDTAVYDCAADHDDDEAQNYDYLGQGTQVTVSS | low polyreactivity |
